Patent publication US20230357354A1 (ENCEFA, published 2023)

Experiments:
[1] = target: human CD38 on cells (Daudi cells; CD38^+ Jurkat T cells) (human, UniProt P28907 1-300); assay: cell-based or functional assay
[2] = target: T1, recombinant human CD38 (Acrobio, ref CD8-H5224) (human, UniProt P28907 43-300); assay: SPR, Biacore 3000, CM5 chip, recombinant human CD38
T1 construct: Bought protein used in Biacore
Experimental: Binding affinity was measured and reported by the equilibrium dissociation constant (KD). Recombinant human CD38 (Acrobio, ref CD8-H5224) dissolved in milliQ water was used.

Binder	EC50, glucose uptake (2-NBDG fluorescence), human Daudi cells [1] [nM]	Kd [2] [nM]
NSRDQNFVILEFPVE [CD31 peptide NSRDQNFVILEFPVE (linear)]	~13	2.3
CRDQNFVILEFPVEEQC [looped peptide CRDQNFVILEFPVEEQC (SEQ ID NO: 9), free peptide]	~0.1	–
